Data taken from patent US20230192841A1 (NANJING LEGEND BIOTECH, published 2023).

Molecular target: T1, human Claudin18.2 (human, UniProt P56856-2 1-261)
T1 construct: whole, on cells; expressed on Dubca, HEK293T, PANC1 cells by lentiviral transduction; endogenous on NUGC4 and KATOIII cells; also called huCLDN18.2; CLDN18.2
Experiment: phage ELISA and cell binding of phage supernatant, HEK293T.huCLDN18.2.Luc cells
Experimental: Phage ELISA was performed to identify clones specific to the target antigens. Individual output phage clones were grown in 96-deep-well plates and rescued by M13KO7 helper phage overnight. To identify clones that bound to antigen proteins, 96-well ELISA microtiter plates were coated with recombinant human HEK293T.huCLDN18.1.Luc and HEK293T.huCLDN18.2.Luc cells respectively in coating buffer overnight at 4° C., and the plates were then blocked with blocking buffer. After blocking, approximately 50 µL per well of phage supernatant from overnight cell culture was added to the plates for 1.5-hour incubation at 4° C. The plates were washed four times, and the HRP-conjugated anti-M13 monoclonal antibody was added to the plates for 45-minute incubation at 4° C. The plates were again washed five times and substrate solution was added to the wells for color developing. Absorbance at 450 nm was measured for each well.
To further identify clones that bind HEK293T.huCLDN18.2.Luc cells, the HEK293T.CLDN18.2.Luc cells were blocked with blocking buffer at room temperature for 1 hour. After blocking, approximately 20 µL per well of phage supernatant from overnight cell culture was added to the cell solutions for 1-hour incubation at room temperature. […] The absorption was measured at 450 nm.

binding result: binds
B1: VHH182512 (VHH)
VHH: EVQLVESGGGSVQAGGSLTLSCEASRSTANMAWFRQGPGKEREGVAAAHSDGSTKYADSVKGRFTISKDNGKNTLYLRMNGLKPEEGVMYYCAARGSPWWNSVVALESYAYSYWGQGTQVTVSS
